“And” between values parts separate entries of the source, which are not always exact repeats. Identical values can stand only once.
Key:
[1] = molecular target: BG505 envelope (gp120 monomer released from lysed pseudovirus) (HIV-1); experiment: antigen capture ELISA, mAb 2.5 ug/ml, plate 1
[2] = molecular target: aMLV envelope (from lysed pseudovirus); experiment: antigen capture ELISA, mAb 2.5 ug/ml, plate 1
[3] = molecular target: BG505 envelope (gp120 monomer released from lysed pseudovirus) (HIV-1); experiment: antigen capture ELISA, mAb 7.5 ug/ml, plate 2
[4] = molecular target: aMLV envelope (from lysed pseudovirus); experiment: antigen capture ELISA, mAb 7.5 ug/ml, plate 2
[5] = molecular target: BG505 envelope (gp120 monomer released from lysed pseudovirus) (HIV-1); experiment: antigen capture ELISA, mAb 0.3 ug/ml, plate 1
[6] = molecular target: aMLV envelope (from lysed pseudovirus); experiment: antigen capture ELISA, mAb 0.3 ug/ml, plate 1
[7] = molecular target: HIV-1 JRFL envelope (HIV-1); experiment: capture ELISA, plate 1, mAb 0.8 ug/ml
[8] = molecular target: HIV-1 envelope of gp160 clone AG-010.c14 (HIV-1); experiment: capture ELISA, plate 1, mAb 0.8 ug/ml
[9] = molecular target: HIV-1 envelope of gp160 clone B-Acute-010.c09 (HIV-1); experiment: capture ELISA, plate 1, mAb 0.8 ug/ml
[10] = molecular target: HIV-1 envelope of gp160 clone B-Acute-008.c11 (HIV-1); experiment: capture ELISA, plate 1, mAb 0.8 ug/ml
[11] = molecular target: HIV-1 envelope of gp160 clone B-Acute-009-c08 (HIV-1); experiment: capture ELISA, plate 1, mAb 0.8 ug/ml
[12] = molecular target: HIV-1 16055 envelope (HIV-1); experiment: capture ELISA, plate 1, mAb 0.8 ug/ml
[13] = molecular target: HIV-1 envelope clone G-011.c02 (multiclade gp160 clone panel) (HIV-1); experiment: capture ELISA, plate 1, mAb 0.8 ug/ml
[14] = molecular target: HIV-1 envelope clone G-011.c05 (multiclade gp160 clone panel) (HIV-1); experiment: capture ELISA, plate 1, mAb 0.8 ug/ml
[15] = molecular target: HIV-1 JRCSF envelope (HIV-1) (UniProt P20871); experiment: capture ELISA, plate 1, mAb 0.8 ug/ml
[16] = molecular target: HIV-1 envelope of gp160 clone AG-010.c11 (HIV-1); experiment: capture ELISA, plate 1, mAb 0.8 ug/ml
[17] = molecular target: HIV-1 envelope of gp160 clone B-Acute-010.c08 (HIV-1); experiment: capture ELISA, plate 1, mAb 0.8 ug/ml
[18] = molecular target: HIV-1 envelope of gp160 clone B-Chronic-014.c02 (HIV-1); experiment: capture ELISA, plate 1, mAb 0.8 ug/ml
[19] = molecular target: HIV-1 JRFL envelope (HIV-1); experiment: capture ELISA, plate 1, mAb 0.3 ug/ml
[20] = molecular target: HIV-1 envelope of gp160 clone AG-010.c14 (HIV-1); experiment: capture ELISA, plate 1, mAb 0.3 ug/ml
[21] = molecular target: HIV-1 envelope of gp160 clone B-Acute-010.c09 (HIV-1); experiment: capture ELISA, plate 1, mAb 0.3 ug/ml
[22] = molecular target: HIV-1 envelope of gp160 clone B-Acute-008.c11 (HIV-1); experiment: capture ELISA, plate 1, mAb 0.3 ug/ml
[23] = molecular target: HIV-1 envelope of gp160 clone B-Acute-009-c08 (HIV-1); experiment: capture ELISA, plate 1, mAb 0.3 ug/ml
[24] = molecular target: HIV-1 16055 envelope (HIV-1); experiment: capture ELISA, plate 1, mAb 0.3 ug/ml
[25] = molecular target: HIV-1 envelope clone G-011.c02 (multiclade gp160 clone panel) (HIV-1); experiment: capture ELISA, plate 1, mAb 0.3 ug/ml
[26] = molecular target: HIV-1 envelope clone G-011.c05 (multiclade gp160 clone panel) (HIV-1); experiment: capture ELISA, plate 1, mAb 0.3 ug/ml
[27] = molecular target: HIV-1 JRCSF envelope (HIV-1) (UniProt P20871); experiment: capture ELISA, plate 1, mAb 0.3 ug/ml
[28] = molecular target: HIV-1 envelope of gp160 clone AG-010.c11 (HIV-1); experiment: capture ELISA, plate 1, mAb 0.3 ug/ml
[29] = molecular target: HIV-1 envelope of gp160 clone B-Acute-010.c08 (HIV-1); experiment: capture ELISA, plate 1, mAb 0.3 ug/ml
[30] = molecular target: HIV-1 envelope of gp160 clone B-Chronic-014.c02 (HIV-1); experiment: capture ELISA, plate 1, mAb 0.3 ug/ml
[31] = molecular target: HIV-1 envelope clone F1-002.c16 (multiclade gp160 clone panel) (HIV-1); experiment: capture ELISA, plate 1, mAb 0.8 ug/ml
[32] = molecular target: HIV-1 envelope clone BF-002.c05 (multiclade gp160 clone panel) (HIV-1); experiment: capture ELISA, plate 1, mAb 0.8 ug/ml
[33] = molecular target: HIV-1 envelope clone BF-002.c08 (multiclade gp160 clone panel) (HIV-1); experiment: capture ELISA, plate 1, mAb 0.8 ug/ml
[34] = molecular target: HIV-1 envelope clone F1-002.c11 (multiclade gp160 clone panel) (HIV-1); experiment: capture ELISA, plate 1, mAb 0.8 ug/ml
[35] = molecular target: HIV-1 envelope clone F1-002.c16 (multiclade gp160 clone panel) (HIV-1); experiment: capture ELISA, plate 1, mAb 0.3 ug/ml
[36] = molecular target: HIV-1 envelope clone BF-002.c05 (multiclade gp160 clone panel) (HIV-1); experiment: capture ELISA, plate 1, mAb 0.3 ug/ml
[37] = molecular target: HIV-1 envelope clone BF-002.c08 (multiclade gp160 clone panel) (HIV-1); experiment: capture ELISA, plate 1, mAb 0.3 ug/ml
[38] = molecular target: HIV-1 envelope clone F1-002.c11 (multiclade gp160 clone panel) (HIV-1); experiment: capture ELISA, plate 1, mAb 0.3 ug/ml

Substance	ELISA OD [1]	ELISA OD [2]	ELISA OD [3]	ELISA OD [4]	ELISA OD [5]	ELISA OD [6]	ELISA OD [8]	ELISA OD [9]	ELISA OD [10]	ELISA OD [11]	ELISA OD [13]	ELISA OD [14]	ELISA OD [15]	ELISA OD [16]	ELISA OD [17]	ELISA OD [18]	ELISA OD [20]	ELISA OD [21]	ELISA OD [22]	ELISA OD [23]	other results
PG9 (antibody)	0.346 OD	0.068 OD and 0.067 OD	0.428 OD	0.079 OD and 0.071 OD	0.162 OD	0.068 OD and 0.067 OD	0.67 OD	0.08 OD	0.168 OD	0.076 OD	0.064 OD	0.172 OD	0.24 OD and 0.235 OD	0.506 OD	0.161 OD	1.22 OD	0.339 OD	0.073 OD	0.114 OD	0.062 OD	ELISA OD [7]: 0.064 OD and 0.096 OD; ELISA OD [12]: 0.313 OD and 0.242 OD; ELISA OD [19]: 0.066 OD and 0.072 OD; ELISA OD [24]: 0.184 OD and 0.188 OD; ELISA OD [25]: 0.064 OD; ELISA OD [26]: 0.104 OD; ELISA OD [27]: 0.158 OD and 0.171 OD; ELISA OD [28]: 0.278 OD; ELISA OD [29]: 0.089 OD; ELISA OD [30]: 0.564 OD
PG16 (antibody)	0.103 OD	0.063 OD and 0.072 OD	0.12 OD	0.102 OD and 0.081 OD	0.067 OD	0.053 OD and 0.096 OD	0.491 OD	0.073 OD	0.164 OD	0.058 OD	0.057 OD	0.099 OD	0.169 OD and 0.154 OD	0.177 OD	0.132 OD	0.365 OD	0.265 OD	0.062 OD	0.163 OD	0.053 OD	ELISA OD [31]: 0.341 OD; ELISA OD [32]: 0.518 OD; ELISA OD [33]: 0.134 OD; ELISA OD [34]: 0.146 OD; ELISA OD [35]: 0.229 OD; ELISA OD [25]: 0.063 OD; ELISA OD [26]: 0.085 OD; ELISA OD [36]: 0.352 OD; ELISA OD [37]: 0.109 OD; ELISA OD [38]: 0.088 OD; ELISA OD [27]: 0.122 OD and 0.186 OD; ELISA OD [28]: 0.141 OD; ELISA OD [29]: 0.083 OD; ELISA OD [30]: 0.288 OD
PGT145 (antibody)	0.077 OD	0.062 OD and 0.068 OD	0.104 OD	0.108 OD and 0.079 OD	0.066 OD	0.057 OD and 0.116 OD	0.054 OD	0.06 OD	0.078 OD	0.062 OD	0.062 OD	0.08 OD	0.058 OD and 0.056 OD	0.054 OD	0.114 OD	0.083 OD	0.055 OD	0.065 OD	0.099 OD	0.058 OD	ELISA OD [7]: 0.057 OD and 0.051 OD; ELISA OD [31]: 0.269 OD; ELISA OD [12]: 0.065 OD and 0.059 OD; ELISA OD [32]: 0.169 OD; ELISA OD [33]: 0.054 OD; ELISA OD [34]: 0.067 OD; ELISA OD [19]: 0.063 OD and 0.071 OD; ELISA OD [35]: 0.164 OD; ELISA OD [24]: 0.057 OD and 0.069 OD; ELISA OD [25]: 0.084 OD; ELISA OD [26]: 0.076 OD; ELISA OD [36]: 0.106 OD; ELISA OD [37]: 0.065 OD; ELISA OD [38]: 0.061 OD; ELISA OD [27]: 0.083 OD and 0.072 OD; ELISA OD [28]: 0.06 OD; ELISA OD [29]: 0.081 OD; ELISA OD [30]: 0.056 OD
PGT151 (antibody)	0.063 OD	0.068 OD and 0.053 OD	0.094 OD	0.114 OD and 0.116 OD	0.057 OD	0.068 OD and 0.057 OD	0.102 OD	0.055 OD	0.174 OD	0.066 OD	0.061 OD	0.071 OD	0.058 OD and 0.056 OD	0.057 OD	0.124 OD	0.148 OD	0.118 OD	0.052 OD	0.138 OD	0.085 OD	ELISA OD [7]: 0.066 OD and 0.05 OD; ELISA OD [31]: 0.068 OD; ELISA OD [12]: 0.056 OD and 0.061 OD; ELISA OD [32]: 0.117 OD; ELISA OD [33]: 0.05 OD; ELISA OD [34]: 0.065 OD; ELISA OD [19]: 0.074 OD and 0.055 OD; ELISA OD [35]: 0.062 OD; ELISA OD [24]: 0.053 OD and 0.058 OD; ELISA OD [25]: 0.053 OD; ELISA OD [26]: 0.064 OD; ELISA OD [36]: 0.08 OD; ELISA OD [37]: 0.055 OD; ELISA OD [38]: 0.054 OD; ELISA OD [28]: 0.055 OD; ELISA OD [29]: 0.104 OD; ELISA OD [30]: 0.195 OD
PGV04 (antibody)	1.04 OD	0.056 OD and 0.073 OD	1.37 OD	0.123 OD	0.45 OD	0.052 OD and 0.057 OD	0.15 OD	0.902 OD	0.053 OD	0.079 OD	0.282 OD	0.136 OD	0.896 OD and 1.04 OD	0.101 OD	0.631 OD	2.9 OD	0.093 OD	0.432 OD	0.055 OD	0.07 OD	ELISA OD [31]: 0.118 OD; ELISA OD [32]: 1.91 OD; ELISA OD [33]: 1.27 OD; ELISA OD [34]: 0.079 OD; ELISA OD [35]: 0.083 OD; ELISA OD [25]: 0.167 OD; ELISA OD [26]: 0.08 OD; ELISA OD [36]: 0.881 OD; ELISA OD [37]: 0.663 OD; ELISA OD [38]: 0.082 OD; ELISA OD [27]: 0.481 OD and 0.603 OD; ELISA OD [28]: 0.07 OD; ELISA OD [29]: 0.287 OD

— patent US20150065381A1
